Patent US20130217027A1
Blank lines part the entries; values can stand above or below the substance they belong to.

Legend:
[1] = molecular target: IS (1): peptide ARTK(me3)QTAR conjugated to a 125 bp DNA strand (H3K4me3-IS); test: ChIP qPCR primer set H3K4me3_qPCR_Vshort; ratio of H3K4me3-antibody ChIP over H3K36me3-antibody ChIP
[2] = molecular target: IS (1): peptide ARTK(me3)QTAR conjugated to a 125 bp DNA strand (H3K4me3-IS); test: ChIP qPCR primer set H3K4me3_qPCR; enrichment of H3K4me3-IS normalised to Control-IS (H3_qPCR)
[3] = molecular target: IS (2): peptide ARTKQTAR without the methylation modification conjugated to a 125 bp DNA strand (Control-IS); test: ChIP of spiked conjugate, qPCR primer set H3_qPCR_long, well E2
[4] = molecular target: IS (2): peptide ARTKQTAR without the methylation modification conjugated to a 125 bp DNA strand (Control-IS); test: ChIP of spiked conjugate, qPCR primer set H3_qPCR_long, well E1
[5] = molecular target: IS (2): peptide ARTKQTAR without the methylation modification conjugated to a 125 bp DNA strand (Control-IS); test: ChIP of spiked conjugate, qPCR primer set H3_qPCR, well A1
[6] = molecular target: IS (1): peptide ARTK(me3)QTAR conjugated to a 125 bp DNA strand (H3K4me3-IS); test: ChIP with 10 fg of internal standard spiked after sonication, qPCR
[7] = molecular target: IS (1): peptide ARTK(me3)QTAR conjugated to a 125 bp DNA strand (H3K4me3-IS); test: ChIP qPCR primer set H3K4me3_qPCR_long; enrichment of H3K4me3-IS normalised to Control-IS (H3_qPCR_long)
[8] = molecular target: IS (1): peptide ARTK(me3)QTAR conjugated to a 125 bp DNA strand (H3K4me3-IS); test: ChIP of spiked conjugate, qPCR primer set H3K4me3_qPCR_short, well K1
[9] = molecular target: IS (1): peptide ARTK(me3)QTAR conjugated to a 125 bp DNA strand (H3K4me3-IS); test: ChIP of spiked conjugate, qPCR primer set H3K4me3_qPCR, well C2
[10] = molecular target: IS (1): peptide ARTK(me3)QTAR conjugated to a 125 bp DNA strand (H3K4me3-IS); test: ChIP qPCR primer set H3K4me3_qPCR; ratio of H3K4me3-antibody ChIP over H3K36me3-antibody ChIP
[11] = molecular target: IS (1): peptide ARTK(me3)QTAR conjugated to a 125 bp DNA strand (H3K4me3-IS); test: ChIP of spiked conjugate, qPCR primer set H3K4me3_qPCR, well C1
[12] = molecular target: IS (1): peptide ARTK(me3)QTAR conjugated to a 125 bp DNA strand (H3K4me3-IS); test: ChIP of spiked conjugate, qPCR primer set H3K4me3_qPCR_long, well G2
[13] = molecular target: IS (1): peptide ARTK(me3)QTAR conjugated to a 125 bp DNA strand (H3K4me3-IS); test: ChIP qPCR primer set H3K4me3_qPCR_short; enrichment of H3K4me3-IS normalised to Control-IS (H3_qPCR_short)
[14] = molecular target: IS (1): peptide ARTK(me3)QTAR conjugated to a 125 bp DNA strand (H3K4me3-IS); test: ChIP qPCR primer set H3K4me3_qPCR_short; ratio of H3K4me3-antibody ChIP over H3K36me3-antibody ChIP
[15] = molecular target: IS (2): peptide ARTKQTAR without the methylation modification conjugated to a 125 bp DNA strand (Control-IS); test: ChIP of spiked conjugate, qPCR primer set H3_qPCR_short, well I2
[16] = molecular target: IS (1): peptide ARTK(me3)QTAR conjugated to a 125 bp DNA strand (H3K4me3-IS); test: ChIP of spiked conjugate, qPCR primer set H3K4me3_qPCR_short, well K2
[17] = molecular target: IS (2): peptide ARTKQTAR without the methylation modification conjugated to a 125 bp DNA strand (Control-IS); test: ChIP of spiked conjugate, qPCR primer set H3_qPCR_short, well I1
[18] = molecular target: IS (1): peptide ARTK(me3)QTAR conjugated to a 125 bp DNA strand (H3K4me3-IS); test: ChIP of spiked conjugate, qPCR primer set H3K4me3_qPCR_Vshort, well M2
[19] = molecular target: IS (1): peptide ARTK(me3)QTAR conjugated to a 125 bp DNA strand (H3K4me3-IS); test: ChIP of spiked conjugate, qPCR primer set H3K4me3_qPCR_long, well G1
[20] = molecular target: IS (2): peptide ARTKQTAR without the methylation modification conjugated to a 125 bp DNA strand (Control-IS); test: ChIP of spiked conjugate, qPCR primer set H3_qPCR, well A2
[21] = molecular target: IS (1): peptide ARTK(me3)QTAR conjugated to a 125 bp DNA strand (H3K4me3-IS); test: ChIP of spiked conjugate, qPCR primer set H3K4me3_qPCR_Vshort, well M1
[22] = molecular target: IS (1): peptide ARTK(me3)QTAR conjugated to a 125 bp DNA strand (H3K4me3-IS); test: ChIP qPCR primer set H3K4me3_qPCR_long; ratio of H3K4me3-antibody ChIP over H3K36me3-antibody ChIP
[23] = molecular target: IS (2): peptide ARTKQTAR without the methylation modification conjugated to a 125 bp DNA strand (Control-IS); test: ChIP qPCR primer set H3_qPCR_short; ratio of H3K4me3-antibody ChIP over H3K36me3-antibody ChIP
[24] = molecular target: IS (1): peptide ARTK(me3)QTAR conjugated to a 125 bp DNA strand (H3K4me3-IS); test: ChIP qPCR primer set H3K4me3_qPCR_Vshort; enrichment of H3K4me3-IS normalised to Control-IS
[25] = molecular target: IS (2): peptide ARTKQTAR without the methylation modification conjugated to a 125 bp DNA strand (Control-IS); test: ChIP qPCR primer set H3_qPCR_long; ratio of H3K4me3-antibody ChIP over H3K36me3-antibody ChIP
[26] = molecular target: IS (2): peptide ARTKQTAR without the methylation modification conjugated to a 125 bp DNA strand (Control-IS); test: ChIP qPCR primer set H3_qPCR; ratio of H3K4me3-antibody ChIP over H3K36me3-antibody ChIP
[27] = molecular target: IS (1): peptide ARTK(me3)QTAR conjugated to a 125 bp DNA strand (H3K4me3-IS); test: ChIP with 100 fg of internal standard spiked after sonication, qPCR
[28] = molecular target: IS (1): peptide ARTK(me3)QTAR conjugated to a 125 bp DNA strand (H3K4me3-IS); test: ChIP of spiked conjugate, qPCR primer set H3K4me3_qPCR_Vshort, well M3
[29] = molecular target: IS (1): peptide ARTK(me3)QTAR conjugated to a 125 bp DNA strand (H3K4me3-IS); test: ChIP of spiked conjugate, qPCR primer set H3K4me3_qPCR_Vshort, well M4
[30] = molecular target: IS (1): peptide ARTK(me3)QTAR conjugated to a 125 bp DNA strand (H3K4me3-IS); test: ChIP of spiked conjugate, qPCR primer set H3K4me3_qPCR_short, well K3
[31] = molecular target: IS (2): peptide ARTKQTAR without the methylation modification conjugated to a 125 bp DNA strand (Control-IS); test: ChIP of spiked conjugate, qPCR primer set H3_qPCR_long, well E4
[32] = molecular target: IS (1): peptide ARTK(me3)QTAR conjugated to a 125 bp DNA strand (H3K4me3-IS); test: ChIP of spiked conjugate, qPCR primer set H3K4me3_qPCR_short, well K4
[33] = molecular target: IS (2): peptide ARTKQTAR without the methylation modification conjugated to a 125 bp DNA strand (Control-IS); test: ChIP of spiked conjugate, qPCR primer set H3_qPCR, well A3
[34] = molecular target: IS (2): peptide ARTKQTAR without the methylation modification conjugated to a 125 bp DNA strand (Control-IS); test: ChIP of spiked conjugate, qPCR primer set H3_qPCR_long, well E3
[35] = molecular target: IS (1): peptide ARTK(me3)QTAR conjugated to a 125 bp DNA strand (H3K4me3-IS); test: ChIP of spiked conjugate, qPCR primer set H3K4me3_qPCR_long, well G4
[36] = molecular target: IS (2): peptide ARTKQTAR without the methylation modification conjugated to a 125 bp DNA strand (Control-IS); test: ChIP of spiked conjugate, qPCR primer set H3_qPCR, well A4
[37] = molecular target: IS (1): peptide ARTK(me3)QTAR conjugated to a 125 bp DNA strand (H3K4me3-IS); test: ChIP of spiked conjugate, qPCR primer set H3K4me3_qPCR, well C4
[38] = molecular target: IS (1): peptide ARTK(me3)QTAR conjugated to a 125 bp DNA strand (H3K4me3-IS); test: ChIP of spiked conjugate, qPCR primer set H3K4me3_qPCR, well C3
[39] = molecular target: IS (2): peptide ARTKQTAR without the methylation modification conjugated to a 125 bp DNA strand (Control-IS); test: ChIP of spiked conjugate, qPCR primer set H3_qPCR_short, well I3
[40] = molecular target: IS (2): peptide ARTKQTAR without the methylation modification conjugated to a 125 bp DNA strand (Control-IS); test: ChIP of spiked conjugate, qPCR primer set H3_qPCR_short, well I4
[41] = molecular target: IS (1): peptide ARTK(me3)QTAR conjugated to a 125 bp DNA strand (H3K4me3-IS); test: ChIP of spiked conjugate, qPCR primer set H3K4me3_qPCR_long, well G3

Cp (qPCR) [3]: 20.5 | Cp (qPCR) [4]: 20.4 | Cp (qPCR) [5]: 20.4 | Cp (qPCR) [15]: 19.9 | Cp (qPCR) [17]: 19.5 | Cp (qPCR) [20]: 20.4 | K4/K36 [23]: 0.871 fold | K4/K36 [25]: 0.862 fold | K4/K36 [26]: 1.16 fold
Substance: antibody specific for H3K4me3 (Millipore, catalogue Number: 07-473, rabbit, polyclonal)
K4/K36 [1]: 75.6 fold | (K4/K36)^K4-ChIP/(K4/K36)^K36-ChIP [2]: 26.6 fold | qPCR cycle of enrichment [6]: 30 cycle | (K4/K36)^K4-ChIP/(K4/K36)^K36-ChIP [7]: 43.9 fold | Cp (qPCR) [8]: 14.2 | Cp (qPCR) [9]: 15.2 | K4/K36 [10]: 30.9 fold | Cp (qPCR) [11]: 14.7 | Cp (qPCR) [12]: 15.6 | (K4/K36)^K4-ChIP/(K4/K36)^K36-ChIP [13]: 52.7 fold | K4/K36 [14]: 45.9 fold | Cp (qPCR) [16]: 14.9 | Cp (qPCR) [18]: 14.4 | Cp (qPCR) [19]: 15.2 | Cp (qPCR) [21]: 14 | K4/K36 [22]: 37.8 fold | (K4/K36)^K4-ChIP/(K4/K36)^K36-ChIP [24]: 86.8 fold | qPCR cycle of enrichment [27]: 26 cycle

Cp (qPCR) [31]: 19.9 | Cp (qPCR) [33]: 20.3 | Cp (qPCR) [34]: 20.6 | Cp (qPCR) [36]: 21 | Cp (qPCR) [39]: 19.1 | Cp (qPCR) [40]: 19.9
Substance: non-relevant control antibody that should recognize H3K36me3 (Abcam, catalogue Number: ab9050, rabbit, polyclonal)
Cp (qPCR) [28]: 20.1 | Cp (qPCR) [29]: 20.9 | Cp (qPCR) [30]: 19.9 | Cp (qPCR) [32]: 20.2 | Cp (qPCR) [35]: 20.9 | Cp (qPCR) [37]: 19.9 | Cp (qPCR) [38]: 19.9 | Cp (qPCR) [41]: 20.4
